Reference: article PMC9279676, “ERK2 MAP kinase regulates SUFU binding by multisite phosphorylation of GLI1” (Life Science Alliance, 2022)
“And” between values parts separate entries of the source, which are not always exact repeats. Identical values can stand only once.

T1: full-length human SUFU protein, 35S-radiolabeled (human, UniProt Q9UMX1-1 1-484, [35S]-methionine label)
T1 construct: human SUFU, full length, residues 1-484, from plasmid pGEM4Z-SUFU; also called 35S-SUFU; radiolabeled SUFU; source: in vitro transcription and translation (SP6, Promega), partially purified by ammonium sulfate precipitation
T1 sequence (looked up): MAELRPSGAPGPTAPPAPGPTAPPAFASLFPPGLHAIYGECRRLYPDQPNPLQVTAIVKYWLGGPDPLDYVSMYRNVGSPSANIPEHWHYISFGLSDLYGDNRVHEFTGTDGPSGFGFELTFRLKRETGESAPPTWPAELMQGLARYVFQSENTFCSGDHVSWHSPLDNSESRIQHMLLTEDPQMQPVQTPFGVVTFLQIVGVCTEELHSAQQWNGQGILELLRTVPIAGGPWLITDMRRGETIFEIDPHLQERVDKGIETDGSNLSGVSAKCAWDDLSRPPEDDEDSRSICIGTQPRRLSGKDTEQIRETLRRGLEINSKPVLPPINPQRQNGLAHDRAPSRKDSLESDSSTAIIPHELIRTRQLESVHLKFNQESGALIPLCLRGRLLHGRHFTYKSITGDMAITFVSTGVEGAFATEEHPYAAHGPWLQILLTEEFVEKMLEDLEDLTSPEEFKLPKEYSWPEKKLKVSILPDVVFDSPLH

T2: full-length human SUFU protein, 35S-radiolabeled (human, UniProt Q9UMX1-1 1-484, [35S]-methionine label)
T2 chain: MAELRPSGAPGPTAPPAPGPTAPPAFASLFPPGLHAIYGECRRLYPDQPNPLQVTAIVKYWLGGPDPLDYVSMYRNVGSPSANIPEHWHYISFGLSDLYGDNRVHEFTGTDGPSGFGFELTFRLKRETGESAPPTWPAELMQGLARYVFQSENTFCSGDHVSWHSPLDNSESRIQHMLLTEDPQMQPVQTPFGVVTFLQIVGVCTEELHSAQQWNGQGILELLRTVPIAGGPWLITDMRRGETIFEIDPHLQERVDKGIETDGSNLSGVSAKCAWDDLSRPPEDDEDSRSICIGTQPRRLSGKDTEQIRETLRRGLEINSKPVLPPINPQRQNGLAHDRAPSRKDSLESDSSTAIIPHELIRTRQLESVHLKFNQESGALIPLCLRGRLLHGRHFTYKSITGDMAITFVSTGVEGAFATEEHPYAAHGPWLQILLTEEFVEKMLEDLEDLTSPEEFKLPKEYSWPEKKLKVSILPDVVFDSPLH

B1: GST-GLI1_(68-232), wild type, phosphorylated by ERK2 (domain or fragment, human, UniProt P08151-1 68-232, looked up)
chain: FSSPRSAVKLTKKRALSISPLSDASLDLQTVIRTSPSSLVAFINSRCTSPGGSYGHLSIGTMSPSLGFPAQMNHQKGPSPSFGVQPCGPHDSARGGMIPHPQSRGPFPTCQLKSELDMLVGKCREEPLEGDMSSPNSTGIQDPLLGMLDGREDLEREEKREPESV
modifications: phosphorylated by ERK2 to ∼3 mol phosphate per mole; most efficient sites Ser116 and Ser130, followed by Ser102 and Ser201
notes: vector pGEX-LB; also called ERK2-phosphorylated GLI1; WT + ERK2; source: bacteria, purified (glutathione-Sepharose); then phosphorylated with purified active ERK2 (2 h, 30°C)
B2: GST-GLI1_(68-232), wild type, unphosphorylated (mock treated) (domain or fragment, human, UniProt P08151-1 68-232, looked up)
chain: FSSPRSAVKLTKKRALSISPLSDASLDLQTVIRTSPSSLVAFINSRCTSPGGSYGHLSIGTMSPSLGFPAQMNHQKGPSPSFGVQPCGPHDSARGGMIPHPQSRGPFPTCQLKSELDMLVGKCREEPLEGDMSSPNSTGIQDPLLGMLDGREDLEREEKREPESV
notes: vector pGEX-LB (Gly-Gly-Gly-Gly-Gly-Ser-Gly stretch between GST and the fused part); the plasmid is from Whisenant et al, 2010; also called wild-type GLI1; WT; source: bacteria, purified (glutathione-Sepharose); untreated or mock treated (no ERK2)
B3: GST-GLI1^SSS, phosphorylated by ERK2 (domain or fragment, human, UniProt P08151-1 68-232, looked up)
chain: FSAPRSAVKLTKKRALSIAPLSDASLDLQTVIRTSPSSLVAFINSRCTSPGGSYGHLSIGTMSPSLGFPAQMNHQKGPAPSFGVQPCGPHDSARGGMIPHPQSRGPFPTCQLKSELDMLVGKCREEPLEGDMSAPNSTGIQDPLLGMLDGREDLEREEKREPESV
modifications: phosphorylated by ERK2; intact SP sites S102, S116, S130
notes: only S102, S116 and S130 left intact; also called ERK-phosphorylated GLI1^SSS; phosphorylated GLI1^SSS mutant; source: bacteria, purified (glutathione-Sepharose); then phosphorylated with purified active ERK2
B4: GST-GLI1^S102,S130, phosphorylated by ERK2 (domain or fragment, human, UniProt P08151-1 68-232, looked up)
chain: FSAPRSAVKLTKKRALSIAPLSDASLDLQTVIRTSPSSLVAFINSRCTAPGGSYGHLSIGTMSPSLGFPAQMNHQKGPAPSFGVQPCGPHDSARGGMIPHPQSRGPFPTCQLKSELDMLVGKCREEPLEGDMSAPNSTGIQDPLLGMLDGREDLEREEKREPESV
modifications: phosphorylated by ERK2; intact SP sites S102, S130
notes: only the SP sites S102 and S130 intact; also called ERK2-treated GLI1^S102,S130; source: bacteria, purified (glutathione-Sepharose); then phosphorylated with purified active ERK2
B5: GST-GLI1^SSS (GST-GLI1_(68-232) S70A S86A S146A S201A), mock treated (domain or fragment, human, UniProt P08151-1 68-232, looked up)
chain: FSAPRSAVKLTKKRALSIAPLSDASLDLQTVIRTSPSSLVAFINSRCTSPGGSYGHLSIGTMSPSLGFPAQMNHQKGPAPSFGVQPCGPHDSARGGMIPHPQSRGPFPTCQLKSELDMLVGKCREEPLEGDMSAPNSTGIQDPLLGMLDGREDLEREEKREPESV
notes: only S102, S116 and S130 left intact; source: bacteria, purified (glutathione-Sepharose); mock treated (no ERK2)
B6: GST-GLI1^S102 (GST-GLI1_(68-232), only S102 intact), mock treated (domain or fragment, human, UniProt P08151-1 68-232, looked up)
chain: FSAPRSAVKLTKKRALSIAPLSDASLDLQTVIRTSPSSLVAFINSRCTAPGGSYGHLSIGTMAPSLGFPAQMNHQKGPAPSFGVQPCGPHDSARGGMIPHPQSRGPFPTCQLKSELDMLVGKCREEPLEGDMSAPNSTGIQDPLLGMLDGREDLEREEKREPESV
notes: only the SP site S102 intact; also called S102 one site only; source: bacteria, purified (glutathione-Sepharose); mock treated (no ERK2)
B7: GST-GLI1^S102,S116, phosphorylated by ERK2 (domain or fragment, human, UniProt P08151-1 68-232, looked up)
chain: FSAPRSAVKLTKKRALSIAPLSDASLDLQTVIRTSPSSLVAFINSRCTSPGGSYGHLSIGTMAPSLGFPAQMNHQKGPAPSFGVQPCGPHDSARGGMIPHPQSRGPFPTCQLKSELDMLVGKCREEPLEGDMSAPNSTGIQDPLLGMLDGREDLEREEKREPESV
modifications: phosphorylated by ERK2; intact SP sites S102, S116
notes: only the SP sites S102 and S116 intact; also called ERK2-treated GLI1^S102,S116; source: bacteria, purified (glutathione-Sepharose); then phosphorylated with purified active ERK2
B8: GST-GLI1^AAA, treated with active ERK2 (domain or fragment, human, UniProt P08151-1 68-232, looked up)
chain: FSSPRSAVKLTKKRALSISPLSDASLDLQTVIRTAPSSLVAFINSRCTAPGGSYGHLSIGTMAPSLGFPAQMNHQKGPSPSFGVQPCGPHDSARGGMIPHPQSRGPFPTCQLKSELDMLVGKCREEPLEGDMSSPNSTGIQDPLLGMLDGREDLEREEKREPESV
modifications: treated with ERK2; S70, S86, S146 and S201 remained intact as possible phosphosites
notes: also called GLI1^AAA + ERK2; source: bacteria, purified (glutathione-Sepharose); then phosphorylated with purified active ERK2
B9: GST-GLI1^S116 (GST-GLI1_(68-232), only S116 intact), mock treated (domain or fragment, human, UniProt P08151-1 68-232, looked up)
chain: FSAPRSAVKLTKKRALSIAPLSDASLDLQTVIRTAPSSLVAFINSRCTSPGGSYGHLSIGTMAPSLGFPAQMNHQKGPAPSFGVQPCGPHDSARGGMIPHPQSRGPFPTCQLKSELDMLVGKCREEPLEGDMSAPNSTGIQDPLLGMLDGREDLEREEKREPESV
notes: only the SP site S116 intact; also called S116 one site only; source: bacteria, purified (glutathione-Sepharose); mock treated (no ERK2)
B10: GST-GLI1^AAA (GST-GLI1_(68-232) S102A S116A S130A), mock treated (domain or fragment, human, UniProt P08151-1 68-232, looked up)
chain: FSSPRSAVKLTKKRALSISPLSDASLDLQTVIRTAPSSLVAFINSRCTAPGGSYGHLSIGTMAPSLGFPAQMNHQKGPSPSFGVQPCGPHDSARGGMIPHPQSRGPFPTCQLKSELDMLVGKCREEPLEGDMSSPNSTGIQDPLLGMLDGREDLEREEKREPESV
notes: source: bacteria, purified (glutathione-Sepharose); mock treated (no ERK2)

These binders were tested against T1, full-length human SUFU protein, … (assay: pull-down; purified GST-GLI1_(68-232) variants (mock treated or ERK2 phosphorylated), 0 or 1.25-80 nM, on glutathione-Sepharose beads; ∼1 pmol 35S-SUFU in 200 μl; 15 min at 30°C, then 1 h at room temperature; Binding Buffer (20 mM Tris-HCl pH 7.5, 125 mM KOAc, 0.5 mM EDTA, 5 mM DTT, 0.1% Tween20, 12.5% glycerol) + 1 mg/ml BSA; bound SUFU quantified by SDS-PAGE and Phosphorimager; Kd from binding isotherms). Details: one partner purified.

Binder | Kd
B1 | 93 nM
B2 | ~4 nM and 4 nM and 3 nM
B3 | 127 nM
B4 | 25 ± 3 nM
B5 | 2.6 nM
B6 | ~3 nM
B7 | 43 ± 8 nM
B8 | 20 nM
B9 | 14 nM
B10 | 17 nM

Molecular target: T2, full-length human SUFU protein, …
Test: GLI1 phosphorylated by ERK2
Details: not given

Binder | Kd [nM]
B1 | 118
